The text below walks through data of the Human Domainome abundance scans (Beltran et al. 2025).

B1: Probable E3 ubiquitin-protein ligase MID2, residues 191 to 235; numbered along this chain, Q9UJV3 (parent)
chain: RGITCLDHENEKVNMYCVSDDQLICALCKLVGRHRDHQVASLNDR

± gives the uncertainty stated by the source.

Variants of B1 are the subject of this data set. Description: abundance fitness (aPCA) (normalised: wild type 0, dead -1); higher = more abundant; growth selection in yeast, the domain comes from the species named. The settings on record: Homo sapiens.
RGITCLDHENEKVNMYCVSDDQLICALCKKVGRHRDHQVASLNDR: the abundance fitness was determined as 0.348 ± 0.11. As to RGITCLDHENEKVNMYCVSDDQLICALCKTVGRHRDHQVASLNDR, the abundance fitness worked out at 0.089 ± 0.064.

Take RGITCLDHENEKVNMYCVSDDQLICALCKPVGRHRDHQVASLNDR: the abundance fitness is -0.136 ± 0.076. For RGITCLDHENEKVNMYCVSDDQLICALCKGVGRHRDHQVASLNDR the value was 0.13 ± 0.06; for RGITCLDHENEKVNMYCVSDDQLICALCKVVGRHRDHQVASLNDR, 0.003 ± 0.058. Consider RGITCLDHENEKVNMYCVSDDQLICALCKHVGRHRDHQVASLNDR, for which the abundance fitness is -0.012 ± 0.09. In the case of RGITCLDHENEKVNMYCVSDDQLICALCKEVGRHRDHQVASLNDR, the abundance fitness came out at 0.096 ± 0.059.

As to RGITCLDHENEKVNMYCVSDDQLICALCKFVGRHRDHQVASLNDR, the abundance fitness is -0.022 ± 0.24.

As to RGITCLDHENEKVNMYCVSDDQLICALCKWVGRHRDHQVASLNDR, the abundance fitness was -0.095 ± 0.065.

RGITCLDHENEKVNMYCVSDDQLICALCKSVGRHRDHQVASLNDR: the abundance fitness was 0.189 ± 0.073. As to RGITCLDHENEKVNMYCVSDDQLICALCKQVGRHRDHQVASLNDR, the abundance fitness amounted to 0.109 ± 0.06. Next, RGITCLDHENEKVNMYCVSDDQLICALCKMVGRHRDHQVASLNDR: 0.003 ± 0.084.

Turning to RGITCLDHENEKVNMYCVSDDQLICALCKAVGRHRDHQVASLNDR, the abundance fitness was 0.159 ± 0.057.

As to RGITCLDHENEKVNMYCVSDDQLICALCKNVGRHRDHQVASLNDR, the abundance fitness came to 0.078 ± 0.13. Next, RGITCLDHENEKVNMYCVSDDQLICALCKCVGRHRDHQVASLNDR: 0.026 ± 0.075.

Turning to RGITCLDHENEKVNMYCVSDDQLICALCKDVGRHRDHQVASLNDR, the abundance fitness came to 0.183 ± 0.072. RGITCLDHENEKVNMYCVSDDQLICALCKYVGRHRDHQVASLNDR: the abundance fitness is -0.071 ± 0.1. For RGITCLDHENEKVNMYCVSDDQLICALCKLVKRHRDHQVASLNDR the value was -0.316 ± 0.088; for RGITCLDHENEKVNMYCVSDDQLICALCKLVCRHRDHQVASLNDR, -0.589 ± 0.12; for RGITCLDHENEKVNMYCVSDDQLICALCKLVQRHRDHQVASLNDR, -0.472 ± 0.081. On to RGITCLDHENEKVNMYCVSDDQLICALCKLVVRHRDHQVASLNDR, for which the abundance fitness was -0.474 ± 0.067. Turning to RGITCLDHENEKVNMYCVSDDQLICALCKLVARHRDHQVASLNDR, the abundance fitness is -0.518 ± 0.07.

With RGITCLDHENEKVNMYCVSDDQLICALCKLVERHRDHQVASLNDR, the abundance fitness is -0.248 ± 0.1. RGITCLDHENEKVNMYCVSDDQLICALCKLVWRHRDHQVASLNDR: the abundance fitness is -0.954 ± 0.16. For RGITCLDHENEKVNMYCVSDDQLICALCKLVIRHRDHQVASLNDR, the abundance fitness was -0.459 ± 0.23. For RGITCLDHENEKVNMYCVSDDQLICALCKLVMRHRDHQVASLNDR the value was -0.899 ± 0.17. For RGITCLDHENEKVNMYCVSDDQLICALCKLVRRHRDHQVASLNDR, the abundance fitness is -0.537 ± 0.092. RGITCLDHENEKVNMYCVSDDQLICALCKLVDRHRDHQVASLNDR: the abundance fitness was -0.337 ± 0.23. For RGITCLDHENEKVNMYCVSDDQLICALCKLVHRHRDHQVASLNDR the value was -0.185 ± 0.08; for RGITCLDHENEKVNMYCVSDDQLICALCKLVSRHRDHQVASLNDR, -0.408 ± 0.07; for RGITCLDHENEKVNMYCVSDDQLICALCKLVLRHRDHQVASLNDR, -0.684 ± 0.078. RGITCLDHENEKVNMYCVSDDQLICALCKLVTRHRDHQVASLNDR: the abundance fitness was -0.339 ± 0.091.

As for RGITCLDHENEKVNMYCVSDDQLICALCKLVGIHRDHQVASLNDR, the abundance fitness was -0.106 ± 0.11. With RGITCLDHENEKVNMYCVSDDQLICALCKLVGKHRDHQVASLNDR, the abundance fitness came out at 0.084 ± 0.061. As to RGITCLDHENEKVNMYCVSDDQLICALCKLVGCHRDHQVASLNDR, the abundance fitness was -0.28 ± 0.078. For RGITCLDHENEKVNMYCVSDDQLICALCKLVGWHRDHQVASLNDR the value was -0.39 ± 0.076. For RGITCLDHENEKVNMYCVSDDQLICALCKLVGQHRDHQVASLNDR the value was -0.006 ± 0.08; for RGITCLDHENEKVNMYCVSDDQLICALCKLVGVHRDHQVASLNDR, -0.073 ± 0.059. For RGITCLDHENEKVNMYCVSDDQLICALCKLVGMHRDHQVASLNDR, the abundance fitness was -0.046 ± 0.24. Turning to RGITCLDHENEKVNMYCVSDDQLICALCKLVGYHRDHQVASLNDR, the abundance fitness was -0.088 ± 0.24.

Turning to RGITCLDHENEKVNMYCVSDDQLICALCKLVGTHRDHQVASLNDR, the abundance fitness was -0.024 ± 0.068. For RGITCLDHENEKVNMYCVSDDQLICALCKLVGLHRDHQVASLNDR the value was -0.026 ± 0.064; for RGITCLDHENEKVNMYCVSDDQLICALCKLVGNHRDHQVASLNDR, -0.127 ± 0.094; for RGITCLDHENEKVNMYCVSDDQLICALCKLVGFHRDHQVASLNDR, -0.764 ± 0.36.

Consider RGITCLDHENEKVNMYCVSDDQLICALCKLVGEHRDHQVASLNDR, for which the abundance fitness was -0.022 ± 0.093. For the variant RGITCLDHENEKVNMYCVSDDQLICALCKLVGPHRDHQVASLNDR, the abundance fitness worked out at 0.038 ± 0.12.

RGITCLDHENEKVNMYCVSDDQLICALCKLVGSHRDHQVASLNDR: the abundance fitness was -0.112 ± 0.081. Next, RGITCLDHENEKVNMYCVSDDQLICALCKLVGRQRDHQVASLNDR: -0.319 ± 0.087; RGITCLDHENEKVNMYCVSDDQLICALCKLVGRMRDHQVASLNDR: -0.677 ± 0.096; RGITCLDHENEKVNMYCVSDDQLICALCKLVGRGRDHQVASLNDR: -0.383 ± 0.063.

On to RGITCLDHENEKVNMYCVSDDQLICALCKLVGRPRDHQVASLNDR, for which the abundance fitness was -0.66 ± 0.15. For RGITCLDHENEKVNMYCVSDDQLICALCKLVGRRRDHQVASLNDR the value was -0.459 ± 0.064; for RGITCLDHENEKVNMYCVSDDQLICALCKLVGRTRDHQVASLNDR, -0.473 ± 0.1; for RGITCLDHENEKVNMYCVSDDQLICALCKLVGRSRDHQVASLNDR, -0.387 ± 0.1. Turning to RGITCLDHENEKVNMYCVSDDQLICALCKLVGRARDHQVASLNDR, the abundance fitness was -0.48 ± 0.062. For RGITCLDHENEKVNMYCVSDDQLICALCKLVGRWRDHQVASLNDR the value was -0.997 ± 0.12; for RGITCLDHENEKVNMYCVSDDQLICALCKLVGRVRDHQVASLNDR, -0.558 ± 0.081.
